Test [1] addresses T1, full-length beta-Catenin (Uniprot ID P35222) (Homo sapiens (Human), UniProt P35222 2-781).
T1 construct: The assay protocols say only 'full-length'; No tag is stated, although the AlphaScreen kit is a Histidine (Nickel Chelate) kit; also called B-Catenin; bCat
T1 sequence: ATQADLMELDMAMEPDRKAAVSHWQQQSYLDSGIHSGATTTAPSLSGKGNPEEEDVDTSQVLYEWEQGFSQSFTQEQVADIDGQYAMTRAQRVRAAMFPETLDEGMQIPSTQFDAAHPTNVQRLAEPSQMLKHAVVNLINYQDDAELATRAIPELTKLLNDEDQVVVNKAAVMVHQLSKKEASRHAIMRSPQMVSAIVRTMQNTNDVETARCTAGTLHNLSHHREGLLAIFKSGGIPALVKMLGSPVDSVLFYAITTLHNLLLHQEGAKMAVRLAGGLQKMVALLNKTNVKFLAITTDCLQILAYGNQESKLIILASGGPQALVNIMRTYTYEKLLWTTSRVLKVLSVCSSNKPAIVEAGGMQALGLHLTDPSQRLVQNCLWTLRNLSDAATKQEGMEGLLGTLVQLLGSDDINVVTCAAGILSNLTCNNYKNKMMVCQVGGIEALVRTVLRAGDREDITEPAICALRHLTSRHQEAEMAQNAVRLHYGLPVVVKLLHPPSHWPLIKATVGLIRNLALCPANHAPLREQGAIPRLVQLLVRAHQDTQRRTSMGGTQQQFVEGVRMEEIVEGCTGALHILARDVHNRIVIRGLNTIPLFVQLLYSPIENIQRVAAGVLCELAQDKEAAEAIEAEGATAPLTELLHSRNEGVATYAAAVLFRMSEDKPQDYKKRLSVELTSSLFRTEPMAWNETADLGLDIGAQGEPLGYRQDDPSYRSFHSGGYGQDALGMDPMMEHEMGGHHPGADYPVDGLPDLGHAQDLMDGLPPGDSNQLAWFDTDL
Put plainly: fluorescence polarization competition; peptide titrated against full-length beta-catenin + 5FAM-TCF4(10-53) probe. As to the method:
(§1) The plate was incubated protected from light for 60 minutes at 20° C. prior to read. Reads were performed on a CLARIOstar plate reader (BMG Labtech) in duplicate, and data were fitted to a 1:1 binding model with hill slope using an in-house script. All provided concentrations are final concentrations.
(In general: In fluorescence polarisation assays a small probe gives low polarisation when free and higher when bound to something large.)

Test [2] concerns the target T1, full-length beta-Catenin (Uniprot ID …). Put plainly: AlphaScreen competition; peptide titrated against full-length beta-catenin + biotin-TCF4(10-53). As to the method:
Equal volume of the titrated peptide was added to the plate and incubated for 15 minutes at 20° C. Then 4 uL of donor and 4 uL acceptor beads at 10 ug/mL were added to the plate, for a 16 uL reaction pool and protected from light for 60 minutes at 20° C. prior to read. Reads were performed on a CLARIOstar plate reader (BMG Labtech) in duplicate, and data were fitted to a 1:1 binding model with hill slope using an in-house script. All provided concentrations are final concentrations.
On the technique in general: Alpha assays give light when donor and acceptor beads are brought close together.

In test [3] the target is T2, full-length beta-Catenin (Uniprot ID P35222) (Homo sapiens (Human), UniProt P35222 1-781).
T2 construct: The assay protocol says 'full-length'; also called bCat; B-Catenin
T2 sequence: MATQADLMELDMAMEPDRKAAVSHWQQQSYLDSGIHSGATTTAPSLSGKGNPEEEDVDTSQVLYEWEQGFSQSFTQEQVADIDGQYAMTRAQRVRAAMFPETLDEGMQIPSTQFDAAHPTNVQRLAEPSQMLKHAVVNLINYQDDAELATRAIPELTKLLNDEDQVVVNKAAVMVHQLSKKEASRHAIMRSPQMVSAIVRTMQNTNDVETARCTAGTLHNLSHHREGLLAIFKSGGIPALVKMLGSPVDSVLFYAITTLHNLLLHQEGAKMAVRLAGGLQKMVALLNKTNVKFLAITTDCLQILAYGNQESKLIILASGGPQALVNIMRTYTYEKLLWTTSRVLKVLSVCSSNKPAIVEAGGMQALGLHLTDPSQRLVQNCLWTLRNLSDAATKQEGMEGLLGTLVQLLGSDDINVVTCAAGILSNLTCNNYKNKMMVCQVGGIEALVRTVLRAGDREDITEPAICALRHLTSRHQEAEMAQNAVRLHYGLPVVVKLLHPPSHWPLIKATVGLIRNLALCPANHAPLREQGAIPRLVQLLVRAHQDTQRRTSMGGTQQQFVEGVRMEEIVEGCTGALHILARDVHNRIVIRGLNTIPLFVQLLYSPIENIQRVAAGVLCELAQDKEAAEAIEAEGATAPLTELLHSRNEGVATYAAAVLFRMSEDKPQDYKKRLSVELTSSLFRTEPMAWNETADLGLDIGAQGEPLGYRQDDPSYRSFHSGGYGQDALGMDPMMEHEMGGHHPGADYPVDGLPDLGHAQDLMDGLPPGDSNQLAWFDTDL
Put plainly: fluorescence polarization competition; full-length beta-catenin, 5FAM-TCF4(10-53) probe as competitor. As to the method: as §1

The next test addresses T3, B-cat-Halo (UniProt P35222 1-781).
T3 construct: Expressed by transfection in HEK293 cells for the NanoBRET assay; also called beta-catenin HaloTag NanoBRET construct; not shown: HaloTag
T3 sequence (looked up): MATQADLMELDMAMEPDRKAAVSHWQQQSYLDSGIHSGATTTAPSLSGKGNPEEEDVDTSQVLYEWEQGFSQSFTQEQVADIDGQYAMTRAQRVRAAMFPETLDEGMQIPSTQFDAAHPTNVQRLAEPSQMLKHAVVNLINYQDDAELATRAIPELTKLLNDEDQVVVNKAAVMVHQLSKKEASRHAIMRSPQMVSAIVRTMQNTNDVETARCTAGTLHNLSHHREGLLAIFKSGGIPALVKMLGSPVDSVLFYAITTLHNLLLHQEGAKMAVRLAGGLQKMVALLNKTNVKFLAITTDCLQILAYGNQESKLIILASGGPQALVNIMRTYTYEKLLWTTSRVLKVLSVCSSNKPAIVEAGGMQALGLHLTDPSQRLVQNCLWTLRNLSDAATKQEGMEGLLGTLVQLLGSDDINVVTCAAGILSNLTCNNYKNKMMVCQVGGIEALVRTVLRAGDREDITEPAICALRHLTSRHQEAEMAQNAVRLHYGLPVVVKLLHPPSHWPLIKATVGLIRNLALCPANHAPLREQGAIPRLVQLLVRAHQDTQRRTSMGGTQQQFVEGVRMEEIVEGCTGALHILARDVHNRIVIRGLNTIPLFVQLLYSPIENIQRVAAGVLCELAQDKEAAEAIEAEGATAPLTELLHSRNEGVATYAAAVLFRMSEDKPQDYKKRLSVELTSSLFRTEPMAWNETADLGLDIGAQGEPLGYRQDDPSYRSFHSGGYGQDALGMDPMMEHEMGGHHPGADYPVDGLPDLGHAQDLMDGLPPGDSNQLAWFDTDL
The test is described as follows: NanoBRET Abs IC50 in HEK293 cells; Bcat-Halo, TCF4-Luc as competitor. For orientation: Bioluminescence resonance energy transfer reports proximity on the nanometre scale.

A word on the EC50: it is the concentration at which the effect is half-maximal. A word on the IC50: it is the concentration that gives 50% inhibition. A high value points to weaker potency.

Starred links: 1 amine or outer side, 2 acyl side, 3 side chain; linkers in the order of their positions; H or OH if unused. Positions of bridges follow the written chain, without caps; N, C: chain ends. Non-standard residues stand in square brackets, D forms with d. Primed or numbered codes have the meaning given here. B5(4) = 2,2-bis(4-pentenyl)glycine = 2-amino-2-(pent-4-en-1-yl)hept-6-enoic acid (stitching residue), C=CCCCC(CCCC=C)(N[*:1])C(=O)[*:2]; B5(21) = 2-amino-2-(pent-4-en-1-yl)hept-6-enoic acid, bis(4-pentenyl)glycine (stitching residue), C=CCCCC(CCCC=C)(N[*:1])C(=O)[*:2]; SeN = (S)-5-(((allyloxy)carbonyl)(methyl)amino)-2-amino-2-methylpentanoic acid, C=CCOC(=O)N(C)CCC[C@](C)(N[*:1])C(=O)[*:2]; Bta = N[C@@H](Cc1csc2ccccc12)C(=O)O; αAllylPro = C=CC[C@@]1(C(=O)O)CCCN1; S8 = C=CCCCCCC[C@](C)(N)C(=O)O

B1: I-358 (peptide)
peptide: XDAXDDAAFVXFAQ
modifications: not fully specified; N-terminal Ac; C-terminal NH2; PL3 at 1, B5 at 4, S8 at 11 (stapled 1-4 and 4-11)
notes: Stapled peptide composition; Later-eluting isomer composition; also called Ac-PL3-Asp-Ala-B5-Asp-Asp-Ala-Ala-Phe-Val-S8-Phe-Ala-Gln-NH2
For the molecule B1, the EC50 was 5 µM in test [1] and 10 µM in test [2].

B2: I-355 (peptide)
peptide: XDAXDDAAFVXAWQ
modifications: not fully specified; N-terminal Ac; C-terminal NH2; PL3 at 1, B5 at 4, S8 at 11 (stapled 1-4 and 4-11)
notes: Stapled peptide composition; Earlier-eluting isomer composition; also called Ac-PL3-Asp-Ala-B5-Asp-Asp-Ala-Ala-Phe-Val-S8-Ala-Trp-Gln-NH2
For B2, the EC50 is 5 µM in test [1] and 10 µM in test [2].

B3: I-54: Ac-PL3-Asp-Ala-B5-Asp-Asp-Ala-Ala-Phe-Val-SeN-Phe-Trp-Gln-NH2 (stapled peptide) (peptide)
peptide: Ac-[αAllylPro]DA[B5(4)]DDAAFV[SeN]FWQ-NH2
modifications: staple 1-4, 4-11; not fully specified; printed as Ac-PL3-Asp-Ala-B5-Asp-Asp-Ala-Ala-Phe-Val-SeN-Phe-Trp-Gln-NH2
notes: Same description as I-53
In the case of B3, the IC50 in test [3] is 3.19 µM.

B4: I-356 (peptide)
peptide: XDAXDDAAFVXAWQ
modifications: not fully specified; N-terminal Ac; C-terminal NH2; PL3 at 1, B5 at 4, S8 at 11 (stapled 1-4 and 4-11)
notes: Stapled peptide composition; Later-eluting isomer composition; also called Ac-PL3-Asp-Ala-B5-Asp-Asp-Ala-Ala-Phe-Val-S8-Ala-Trp-Gln-NH2
Regarding B4, the EC50 is 5 µM in test [1] and 8.2 µM in test [2].

B5: I-565 (peptide)
peptide: Ac-[αAllylPro]DL[B5(21)]DDAAFN[S8]F[Bta]H-NH2
modifications: staple 1-4, 4-11; not fully specified
notes: Stapled peptide composition; also called Ac-PL3-Asp-Leu-B5-Asp-Asp-Ala-Ala-Phe-Asn-S8-Phe-BztA-His-NH2
In turn, B5 returned an IC50 with B-cat-Halo of 26 µM.

B6: I-576 (peptide)
peptide: XDLXDEAAFNXFXQ
modifications: not fully specified; N-terminal Ac; C-terminal NH2; non-natural PL3 (1), B5 (4), S8 (11), BztA (13); stapled PL3-B5 and B5-S8 by olefin metathesis
notes: Stapled peptide composition; also called Ac-PL3-Asp-Leu-B5-Asp-Glu-Ala-Ala-Phe-Asn-S8-Phe-BztA-Gln-NH2
In turn, B6 registered a concentration for half-maximal inhibition (IC50) in the test with B-cat-Halo of 11.1 µM.

Source of the values: patent US20240116985A1 (published 2024).
